Source: US20190055293

Test system: insulin

purified RdCVF(LF) protein (human rod-derived cone viability factor, long form)
insulin disulfide reductase activity (turbidity, optical density at A595 nm): The addition of RdCVF (LF) or Trx1 resulted in an increase in optical density at A595 nm

Thioredoxin protein
insulin disulfide reductase activity (turbidity, optical density at A595 nm): The addition of RdCVF (LF) or Trx1 resulted in an increase in optical density at A595 nm
